# Test: yeast display, Sf9 membrane polyspecificity reagent, FACS + sequencing; frameworks hold sequencing errors
# Method in brief: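 Galactose-induced (36–48 hours) yeast carrying a synthetic nanobody display library were exposed to 10% biotinylated, detergent-solubilized Sf9 membrane reagent at 4 °C for 1 hour. FACS followed streptavidin microbead enrichment, using low and high (top ~1%) gates for expression (anti-HA) and reagent binding (streptavidin). Colony PCR, MiSeq 2 × 250 sequencing and CDR-length filtering followed. Labels for polyreactivity reflect the gate of origin.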
row,Sequence,polyreactivity (PSR sort gate)
1,QVQLVESGGGLVQAGGSLRLSCAASGSIFYHYAMGWYRQAPGKERELVAAISSGGSTSYADSVKGRFTFSRDNAKNTVYLQMNSLKPEDTAVYYCNARRIRSRSWKYDYWGQGTQVTVSS,low polyreactivity
2,QVQLVESGGGLVQAGGSLRLSCAASGIIFVEYAMGWYRQAPGKERELVARIRYSGGSTYYADSVKGRFTISRDNAKNTVYLQMNSLKPEDTAVYYCNALFPYIYDYWGQGTQVTVSS,low polyreactivity
3,QVQHEESGGGLFQAGGSLRLICAASGSIFDYYAMGWYRQAPGKERELVSTYYADSVKVRFTISRDNAKNTVYLQLNSLKPEDTAVYFCAKDRGTTGIPDGPAASLYGYVYWGQGTQVTVSS,low polyreactivity
4,HVQLVESVGGLVQAGGSLRLSCAASGRILGDNVMGWYRQAPGKERELVAAISSGSGSTYYADSVKGRFTISRDNAKNTVYLQMNSLKPEDTAVYYCAAGPYIYPRYDYWGQGTQVTVSS,low polyreactivity
5,QVQLVESGGGLVQARGSLRLSCAASGRIFNTYAMGRYIQAPGKERELVAAITSSGGSTYYADSVKGRFTISRDNAKNTVYFQMNSLKPEDTAVYYCNAGSLHRRYYYEGDYWGQGTQVTVSS,high polyreactivity
6,QVQLVESGGGIVQAVGSLRLSCAASGFTFFYYAMGWYRQAPGKERELVATISWNGGTTYYADSVKGRFTISRDNAKNTVYLQMNSLKPEDTAVYYCNARYDWTYLYDAGLVPGWDYDYWGQGTQLTVSS,low polyreactivity
7,QVQLVESGGGLVQAGGSLRLSCAASGRIFGRYAMGWYRQAPGKERELVAAISSSGGTTYYADSVKGRFTISRDKAKNTVYLQMNSLKPEDTAVYYCAKRGYYYGYDYWGQGTQVTVSS,high polyreactivity
8,QVQLVESGGGLVQAGGSLRLSCAAYGLTFYGYGMGWYRQAPGKERELVASITSGGNTYYADSVKGRFTISRDNAKNTVYLQMNSLKPEDTAVYYCAVTAIALYYSSGYYWGQGTQVTVSS,low polyreactivity
9,QVQLVESGGGLVQAGGSLRLSCAASGDIFDAYAMGWYRQAPGKERELVAAISRSGGSTYYADSVKGRFTISRDNAKNTVYLQMNSLKPEDTAVYYCATRFSRRYVRYDYWGHGTQVTVSS,high polyreactivity
10,QVQLEDSGGGLVQAGGSLRLICAASGSIIGTKAMGWYRQAPGKERELVAAIHWSGGTTYYADSVKGRFTISRDNAKNTVYFQMNSLKPDDTPVYDCATVFFVLPPTRFDAWGQGTLVTVSS,low polyreactivity
11,QVQLVESGGCLVQAGGSLRLSCAASGYIFSGYAMGWYRQAPGKERELVAAISSNGGSTYYADSVKGRFTISRDNAKNTVYLPMNSMKPEDTAVYYCKRGLAARVGRVDYWGQGTHVTVSS,low polyreactivity
12,QVQLVESGGGLVQAGGSLRLSCAASGSTFYSYAIGWYRQAPGKERELVADISYSDGSTYYADSVKGRFTISRDYAKNTVYLQMNSLKPEDTAVYYCDAYALSYFKIMDYWGQGTQVTVSS,low polyreactivity
13,QVQLVESGGGLVQAGGSLRLSCAASGSTFPPNAMGWYRQARGKARELVAVISYSDGSTYYADSVNGRFTISRDNAKNTVYLQMNSLKPEDTAVYYCAAYSGYAGVSMYYWGQGTQVTVSS,low polyreactivity
14,QVQLVESGGGLVQEGGSLRLSCAASGSTFWANAMGWYRQAPGKERELVAGITWNAGSTYYADSVKGRFTISRVDANNSVYLHMNSLKPEDTAVYYCAAFYHFQGWGPGYISWGQGTQVSVSS,low polyreactivity
15,QVQLVESGKGLVQAGGILRLSCAASGLIFGFNAMGWYRQAPGKERELVAAIYGSGGTTYYADSVKGRFTISRDNAKNTVYLQMNSLKPEDTAVYYCAGEYIYNVQFSWPKTPAFDYWGQGTLVTVSS,low polyreactivity
16,QVQLVESGGGLVQAGGSLRLSCAPSRRIFSIYALGSYRQAPGKESELVAAIRWSGGSTYYADSVKGRFTISRDKEKNTVYLQMNSLTPEDTAVYYCNRYYQSYYGWTGPYGYWGQGTQVTVSS,high polyreactivity
17,QDQLLETGGGLVQAGGSLRLSCAASGSTSLVYAMGWYRQAPGKERELVADISWSGGSTYYTDSVKGRFTISRDNAKNTVYLQMNSLKPEDTAVYYCNGGTYSTSVPYPYKYWGQGTQVTVSS,high polyreactivity
18,QVHLVESGGGIVQAGVSLRLSCAASGRIFYGYTMGWYRQAPGKERELVASIDYSTGRTYYADSVKGRFTISRDNAKYTVYLQMNSLKPEDTAVYYCNADPNYSFLRYDYWGQGTQVTVSS,high polyreactivity
19,QVQLVESGGGLVQAGGSLRLSCAASGSIFKKYAMGWYRQAPGKERELVAAISSTGGSTKYADSVKGRFTISRDNAKNTVYLQMNSLKPEDTAVYYCAVRYKWPYDYWGQGTQVTVSS,high polyreactivity
20,QVQLEESRGGVVQAGGSLRLSCAASGSIITVYALGWERQAPGQERELVAGISRGGGTYYADSVTGRFTISRDNAKNCVYLQMNSLKPEDTAVYYCAAQIELWPYGIYQSGMYYWGQGTQVTVSS,low polyreactivity
21,QVQLVESGGGLVQAGGSLRLSCAASGRIFFTYVMGWYRQAPGKEREFVAAITFSDGTTYYADSVKGRFTISRDNAKNTVYLQMNSLKPEDTAVYYCNTDSFYGFVYPWTISSEVDYWGQGTQVTVSS,low polyreactivity
22,QDQLVESGGGLVHAGGSLRISCAASGRILYAYPMGWYRQAPGKERELVAAINWSGGSTYYADSVKGRFTISRDNAKNTVYLQMNSLKPEDTAVYYCNRVLDPTNKYYYWGQGTQVTVSS,high polyreactivity

row,Sequence,polyreactivity (PSR sort gate)
1,QVQLVESGGGLVQAGRSLRLSCAASGRTMNGNAMGWYRQAPGKERELVAAITRGGSTYYADSVKGRFTISRDNEKNSVYLQMYSLKPEVTAVYYCAADARYTGYYYWGQGTQVTVSS,high polyreactivity
2,QVQLVESGGGLVQAGGSLRLSCAASGSTFVKNAMGWYRQAPGKERELVAAIRSSGGSTYYADSVKGRFTISRDNAKNTVYLQMNSLKPEDTAVYYCNKVLQASRSKYYYWGQGTQVTVSS,high polyreactivity
3,QVQLVESGGGLVQAGGSLRLSCAASGRIFDYNDMGWYRQAPGTERELVAGISSGGSTYYADSVKGRFTISRDNAKNTVYLQMNSLKPEDTAVYYCAAGGRPYRGYGYWGQGTQVTVSS,high polyreactivity
4,QVQRVDSGGGLVQAGGSLRVSCAASGFIFVANAMGGDREAPGKERELVADINRGSTYYADSVKGRFTISRDNAKNTVYLQMNSLKPEDTAVYYCAARHWRRSGIYYYWGQGTQVTVSS,high polyreactivity
5,QVQLVESGGGLVQAGGSLRLSCAASGRIFNYYAMGWYRQAHGKERELVAVITYSAGRTYYADSVKGRFTISRDNAKNTVYLQMNSLKPEDTAVYNCNADGWVSVSKHYYYWGQGTQVTVSS,low polyreactivity
6,QVQLVESGGGLVQAGGSLRLSCAASGITFPGYAMGWYRQAPGKERELVAVIRKSGTSTGGNTYYADSVKGRFTISRDNAKNTVYLQMNSLKPEDTAVYYCAKKYVWTHNYWGQGTQVTVSS,low polyreactivity
7,QVQLVESGGGLVQAGGSLRLSCAATGFRFVHTAIGWYRKAPGKERELVAAIRSRGGSTYYADSVKGRFTISRDNAKNTVYLQMKSLKPEDTAVYYCAADGAVDSSSRKFGYWGQGTQVNVSS,low polyreactivity
8,QVQLVHSGGGLVQAGGILRLSCAASGYTFGYYTRGWYRQAPGKERELVASIDSGGGTNYADSVKGRFSISRDNAKKTVYLQMNSLKPEDNAVYYCAAESPLYWVEDFESGWRFYYCGQGTQVTVSS,low polyreactivity
9,QVQLVESGGGLVQAGGSLCLSCAASGIFVYNAMGWYRQAPGKEREFVAAINKSGASTFYADSVKGRFTISRDNAKNTVYLQMNSLKPEDTAVYYCRERDYWGQGTQVTVSS,low polyreactivity
10,QVQLVESGGGLDQAGGSLPLTCAASGRTFWGNAMGWYRQAPGQERELVAGISKSGGTTYADSVKGRFTISRDNAKNTVYLEMNRLKPEDTAVYYCAAGGWWWTIPYEYWGQGTKVTVSS,high polyreactivity
11,QVQLVESGGGLVQAGGSLRLSCAASGFTFWPNAMGWYRQAPGKERELVAAINWSGGSTYYADSVKGRFTISRDNAKNTVFLQLNSLKPEDTAVYYCAAVSYDWYVGYEFWGQGTQVTVSS,low polyreactivity
12,QVQLVESGGGLVQAGGSLRLSCAASGRIFLRYAMGWYRQAPGKERELVAAIDFSAGSTYYADSVKGRFTISRDNAKNTVYLQMNSLKPEDTAVYYCATRLGVLYDYWGQGTQVTVSS,low polyreactivity
13,QVQLVESRGGLVQAGGSLRLSCAASGFTFWDNVIGWYRQAPGKERELVAAISNSGGRTYYADSVKGRFTISRDNEKNTVYLQMNILKPEDTAVYYCARYGRRHGYPILDYWGQGTQVTVSS,high polyreactivity
14,QVQLVESGGGLVQAGGSLRLSCAASGRTFVANDMAWYTHAPGKERELFAAISYSGGSTYYADSVKGRFTISRDNAKNTVYLQMNSLKPEDTEVYYCNAYYYGGVRKQHGYWGQVTQVTVSS,low polyreactivity
15,QVQLVESGGGLVQAGGSLRLSCAASGSICDRNAMGWYRQAPGKERELVANITWSGVSTYYADSVKGRFTMSRDNAKNTVYLQMNSLKPDDTAVYYCNADYSYRHWYDPGQYGQAMGYWGQGTQVTVSS,low polyreactivity
16,QVQLVESGGGLVHAGGSLRLSCAASGSTFSRYAMGWYRQAPWKERELVAAISWSGASTYYADSVKWRFTISRDNAKNTVYLQMNSLKPEDTSVYYCAKVARQNWFRYNYDYWGQGTQVTVSS,high polyreactivity
17,QVQLVESGGGLVQAGGRLRLSCAASGIILGRYAMGWDRQAPGKERELVAAISIRGTRTYYADSVKGRFTISRDNAKNTVYLQLNSLKPEDTAVSYCAAKTVLWGQGTQVTVSS,high polyreactivity
18,QVHLVESGGGLVQAGGSLRLSCAASGRTFDRNAMGWYIQAPGKERELVAAISRNGGSTYYADSVKGRFTISRDNAKNTVYLQMNSLKPEDTAVYYCAAPRSVYDVARGDYWGQGTQVTVSS,high polyreactivity
19,QVQLLESGGGLVQAGGSLRLSCASSGYTIIQYAMGWYRQAPGKERELVAGNTWSGGSTYADSVKGRFTISRDNAKNTVYLQMKSLKQEDTAVYYCAADQEPGKYRFPYARKNNYWGQGTQVTVSS,low polyreactivity
20,QVQLVESGGGLVQAGGSLRLICAASGSIFRLNTMGWYRQAPGKERELVAAIFTSGGSTYADSVKGRFTISRDNAKNTVYLQMNSLKPEDTAVYYCAGMDYWGQGTQVTVSS,low polyreactivity
21,QVQLLESGGGLVQAGGSLRLSCAASGFTFQYYAMGWYRQAPGKERELVAAITRGDSTNYADSVKGRFTISRDNAKNTVYLQMNSLKPEDTAVYYCAAGSAPSYWGGWYYERDYWGQGTQVTVSS,low polyreactivity

# Source: the nanobody polyreactivity screen of Harvey et al. (2022)
